Measured values taken from US20190225652A1, “GENERATION OF PEPTIDES” (Hexima Limited, priority 2015, published 2019).

Experiments:
rOaAEP1b [1] = assay: Cyclization assay with rOaAEP1b (MALDI MS); assay type: biochemical, Oldenlandia affinis; conditions: MALDI MS
rOaAEP1b [2] = assay: Kinetics of rOaAEP1b-mediated cyclisation of wt kB1 precursor (RP-HPLC, Michaelis-Menten); assay type: biochemical, Oldenlandia affinis; conditions: substrate 75-250 μM, room temperature, 5 min, enzyme 19.7 μg ml^−1 total protein, ±s.e.m.
Description: FIG. 7 is a graphical representation showing the kinetics of rOaAEP1b-mediated cyclisation. Varying concentrations of substrate (kB1wt precursor) were incubated with enzyme (19.7 μg mL^−1 total protein) for 5 min. The amount of product formed was inferred by monitoring depletion of the precursor by RP-HPLC. […] The kinetic parameters derived from this plot are listed (±SEM).
To determine the kinetics of rOaAEP1b activity against the wt kB1 precursor (FIG. 1; SEQ ID NO: 11), the substrate was assayed at room temperature at a range of concentrations between 75 and 250 μM in a total volume of 20-160 μl of activity buffer. The total protein concentration of the enzyme preparation added to the kinetic assays was 19.7 μg ml^−1. The reaction was quenched after 5 min with 0.1% TFA and the volume adjusted to 800 μl. A volume of 700 μl was loaded onto a reversed-phase C18 analytical column (Agilent Eclipse C18, 5 μm, 4.6×150 mm) and peptides were separated by HPLC (19 min linear gradient of 12-60% acetonitrile, 0.1% TFA at 1 ml min^−1). The identity of eluted peaks was confirmed using MALDI MS. The area under the curve corresponding to the precursor peptide was quantitated by comparison to a standard curve and initial velocities were calculated by converting this to μmoles product formed. […]

rOaAEP1b [3] = assay: Inhibition assay: rOaAEP1b activity against wt IQF peptide; assay type: biochemical, Oldenlandia affinis; conditions: 40 minutes preincubation, rOaAEP1b 4.4 μg mL^−1, IQF peptide 11 μM, 90 minutes
Description: FIG. 16 is a graphical representation of rOaAEP1b activity against the IQF peptide Abz-STRNGLPS-Y(3NO2) [SEQ ID NO:21] in the presence of protease inhibitors. rOaAEP1b (4.4 μg mL^−1 total protein) was allowed to cleave the IQF peptide (11 μM) for 90 minutes. Enzyme activity against the IQF peptide in the presence of either the Ac-YVAD-CHO or Ac-STRN-CHO inhibitors is reported relative to a no inhibitor control at the 90 minutes time point.
To assay activity of recombinant AEPs (rOaAEP1b, rOaAEP3, rOaAEP4 or rOaAEP5) against both internally-quenched and other fluorescent peptides, substrate and enzyme were diluted as appropriate in activity buffer (50 mM sodium acetate, 50 mM NaCl, 1 mM EDTA, 0.5 μM TCEP, pH 5). […] The change in fluorescence intensity over time was monitored on a SpectraMax M2 (Molecular Devices) using excitation/emission wavelengths of 320/420 nm (IQF peptides) or 360/460 nm (other fluorescent peptides).
To investigate the impact of inhibitors on enzyme activity against the wild type IQF peptide, Abz-STRNGLPS-Y(3NO2), rOaAEP1b (4.4 μg mL^−1 total protein) was incubated with Ac-YVAD-CHO (500 μM) or Ac-STRN-CHO (409 μM) for 40 minutes prior to addition to the substrate (11 μM). Enzyme activity against the wt IQF peptide was then assessed as described above.

[4] = system: rOaAEP1b, rOaAEP3, rOaAEP4 and rOaAEP5; assay: Cyclization assay with rOaAEP1b, rOaAEP3, rOaAEP4 and rOaAEP5 (MALDI/ESI MS); assay type: biochemical, Oldenlandia affinis
Description: Linear target peptides (280 μM, unless otherwise indicated) were incubated with rOaAEP1b, rOaAEP3, rOaAEP4 or rOaAEP5 (total protein concentration as indicated in the description of figures) in activity buffer (50 mM sodium acetate, 50 mM NaCl, 1 mM ethylenediaminetetraacetic acid [EDTA], 0.5 μM Tris(2-carboxyethyl)phosphine hydrochloride [TCEP], pH 5). The reaction was allowed to proceed for up to 22 hours at room temperature and was analysed by matrix-assisted laser desorption/ionization mass spectrometry (MALDI MS), high performance liquid chromatography (HPLC) or nuclear magnetic resonance (NMR) as appropriate.
(§1) Cyclization or inter-molecular ligation of linear target peptides was monitored by MALDI or ESI MS. In both cases, the reaction mixture (5-50 μL) was de-salted using C18 zip tips (Millipore) and eluted in 4 μL 50-75% v/v acetonitrile, 0.1% v/v trifluoroacetic acid (TFA).
(§2) For MALDI MS, a saturated MALDI matrix solution (α-cyano-4-hyroxycinnamic acid, CHCA, Bruker) prepared in 95% v/v acetonitrile, 0.1% v/v TFA was diluted 1:22 such that the final matrix solution comprised 90% v/v acetonitrile, 0.1% v/v TFA and 1 mM NH4H2PO4. Eluted samples were mixed 1:4 with the MALDI matrix, spotted onto a MALDI plate and analyzed by an Ultraflex III TOF/TOF (Bruker) in positive reflector mode. Data were analyzed using the flexAnalysis program (Bruker).
(§3) For ESI MS, 96 μl of 75% v/v acetonitrile, 01% v/v TFA was added to the de-salted sample. The sample was then injected into a MicroTOF Q (Bruker) and data was collected in positive ionisation mode. The mass of ligated or cyclized product was determined by charge deconvolution using the Compass DataAnalysis program (Bruker).
The ability of activated AEPs (rOaAEP1b, rOaAEP3, rOaAEP4 and rOaAEP5) to cyclize peptide substrates structurally unrelated to cyclotides was tested in the cyclization assay described in the Materials and Methods. The anti-malarial peptide R1 (Harris et al. (2009) J Biol Chem 284(14):9361-9371; Harris et al. (2005) Infect Immun 73(10):6981-6989); Bac2A, a linear derivative of the bovine peptide bactenecin (Wu and Hancock (1999) Antimicrob Agents Ch 43:1274-1276); and the anti-fungal peptide EcAMP1 (Nolde et al. (2011) J Biol Chem 286(28):25145-25153) were produced with additional AEP recognition residues and used as the substrates.
To investigate the sequence requirements for in vitro cyclization, R1 was used as a model peptide. The recognition residues added to this model peptide were sequentially trimmed to determine the minimal requirements for AEP-mediated cyclization. The N- and C-terminal recognition residues were also substituted with alternate amino acids to determine if particular classes of residues were preferred for cyclization by these recombinant AEPs. The ability of activated AEPs (rOaAEP1b, rOaAEP3, rOaAEP4 and rOaAEP5) to cyclize the R1 peptide with varied flanking sequences was then tested in the cyclization assay described in the Materials and Methods (FIG. 10; Table 3).

[5] = system: rOaAEP1b, rOaAEP3, rOaAEP4 and rOaAEP5; assay: Intermolecular ligation assay with recombinant AEPs; assay type: biochemical, Oldenlandia affinis; conditions: target 140 μM
Description: Target peptides (140 μM) were incubated with a ligation partner peptide (700 μM) and a recombinant AEP (rOaAEP1b, rOaAEP3, rOaAEP4 or rOaAEP5 at 19.7 μg mL^−1 total protein) in activity buffer (50 mM sodium acetate, 50 mM NaCl, 1 mM EDTA, 0.5 μM TCEP, pH 5). The reaction was allowed to proceed for up to 22 hours at room temperature and was analysed by MALDI MS or electrospray ionisation (ESI) mass spectrometry as appropriate.
as §1, §2, §3
To investigate the ability of recombinantly produced AEPs to perform inter-molecular ligation (as well as the intra-molecular ligation required to produce backbone-cyclized peptides), target peptides were incubated with ligation partner peptides as well as active enzyme (FIG. 11). The appearance of new linear peptides were tracked. […]

[6] = target: T1, R1 peptide derivative GLVFAEFLPLFSKFGSRMHILKNGL
T1 chain: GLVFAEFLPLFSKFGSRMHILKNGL

[7] = target: T2, synthetic linear kalata B1 precursor carrying the native C-terminal pro-hepta-peptide GLPSLAA (wt kB1 precursor)
T2 chain: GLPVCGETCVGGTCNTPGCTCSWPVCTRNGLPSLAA

[8] = target: T3, R1 peptide derivative GLPVFAEFLPLFSKFGSRMHILKSTRNGLP
T3 chain: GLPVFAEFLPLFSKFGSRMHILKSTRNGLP

[9] = target: T4, R1 peptide derivative VFAEFLPLFSKFGSRMHILKNGL
T4 chain: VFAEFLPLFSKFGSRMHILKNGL

[10] = target: T5, R1 peptide derivative GLVFAEFLPLFSKFGSRMHILKNG
T5 chain: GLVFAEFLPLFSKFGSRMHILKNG

[11] = target: T6, R1 peptide derivative KLVFAEFLPLFSKFGSRMHILKNGL
T6 chain: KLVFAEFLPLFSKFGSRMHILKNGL

[12] = target: T7, R1 peptide derivative QLVFAEFLPLFSKFGSRMHILKNGL
T7 chain: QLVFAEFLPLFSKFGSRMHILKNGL

wt kB1 precursor: synthetic linear kalata B1 precursor carrying the native C-terminal pro-hepta-peptide (GLPSLAA) (GLPVCGETCVGGTCNTPGCTCSWPVCTRNGLPSLAA; kB1wt)
processing/cyclization by rOaAEP1b (rOaAEP1b [1]): consistent with the expected mass of mature, cyclic kB1 | kcat (rOaAEP1b [2]; conservative estimate (32 kDa, total protein taken as active enzyme)): 0.53 (±0.1) s^−1 | Km (rOaAEP1b [2]): 212 µM

Ac-YVAD-CHO
efficacy of inhibitor against rOaAEP1b (rOaAEP1b [3]; inhibitor 500 μM): limited efficacy

GLP-NaD1-TRNGLP: plant defensin NaD1 with AEP recognition residues at N- and C-termini, expressed in Pichia pastoris (GLPRECKTESNTFPGICITKPPCRKACISEKFTDGHCSKILRRCLCTKPCTRNGLP; Target peptides)
AEP-mediated backbone cyclization of modified NaD1 ([4]; 140 μM, no ligation partner, ESI-MS): no evidence of backbone-cyclization | inter-molecular ligation, C-terminal labelling ([5]; ligation partner GLPVSGE or PLPVSGE 700 μM, enzymes 19.7 μg mL^−1, 6-22 h, ESI-MS): new, linear, peptides were detected

GLVFAEFLPLFSKFGSRMHILKGHV (R1) [SEQ ID NO:61, R1 peptide derivative]
cyclization of linear precursor peptide by recombinant AEPs ([4]; peptides with added AEP recognition residues, 280 μM, enzymes 19.7 μg mL^−1 total protein, MS): not itself an AEP substrate | inter-molecular ligation, N-terminal labelling ([5]; ligation partner biotin-TRNGL 700 μM, enzymes 19.7 μg mL^−1, 6 h, MALDI-MS): created a new linear peptide that incorporated an N-terminal biotin

Ac-STRN-aldehyde
efficacy of inhibitor against rOaAEP1b (rOaAEP1b [3]; inhibitor 409 μM): limited efficacy

B1: recombinant Oldenlandia affinis asparaginyl endopeptidase OaAEP1b, activated (rOaAEP1b) (protein)
chain: MVRYLAGAVLLLVVLSVAAAVSGARDGDYLHLPSEVSRFFRPQETNDDHGEDSVGTRWAVLIAGSKGYANYRHQAGVCHAYQILKRGGLKDENIVVFMYDDIAYNESNPRPGVIINSPHGSDVYAGVPKDYTGEEVNAKNFLAAILGNKSAITGGSGKVVDSGPNDHIFIYYTDHGAAGVIGMPSKPYLYADELNDALKKKHASGTYKSLVFYLEACESGSMFEGILPEDLNIYALTSTNTTESSWCYYCPAQENPPPPEYNVCLGDLFSVAWLEDSDVQNSWYETLNQQYHHVDKRISHASHATQYGNLKLGEEGLFVYMGSNPANDNYTSLDGNALTPSSIVVNQRDADLLHLWEKFRKAPEGSARKEVAQTQIFKAMSHRVHIDSSIKLIGKLLFGIEKCTEILNAVRPAGQPLVDDWACLRSLVGTFETHCGSLSEYGMRHTRTIANICNAGISEEQMAEAASQACASIP
Cyclic product (%) [6]: 92.9% | Linear precursor (%) [6]: 7.1% | Km [7]: 212 (±76) µM for Km | kcat [7]: 0.53 (±0.1) s^-1 for kcat | kcat/Km [7]: 2,500 M^-1 s^-1 for kcat/Km | Cyclic product (%) [8]: 78.8% | Linear precursor (%) [8]: 21.2% | Cyclic product (%) [9]: 49.6% | Linear precursor (%) [9]: 27.7% | Linear product (%) [9]: 27.7% | Linear precursor (%) [10]: 100% | Cyclic product (%) [11]: 82.2% | Linear precursor (%) [11]: 17.8% | Cyclic product (%) [12]: 93.1% | Linear precursor (%) [12]: 6.9%
